The values that follow are results of earlier work, collected in PMC10979411.

In the data set the target is Nterm (UniProt position 44, ADPEAGIGAVL). Description: NMR. The note with it: micelle-associated melittin.

Take “Melittin (Apis mellifera (inferred; organism not stated in the article))”: the pKa is on record as 7.15–8.15.
